From patent publication US20170313769A1 (Pfizer, published 2017)

Columns and labels:
[1] = target: T1, Human IFNβ (mature human interferon beta) (human, UniProt P01574 22-187); assay: cell-based or functional assay
[2] = target: T1, Human IFNβ (mature human interferon …); assay: Octet (BLI) response rank; method not described
[3] = target: T1, Human IFNβ (mature human interferon …); assay: SPR (affinity maturation); before the light chain mutations (parent antibody)
[4] = target: T1, Human IFNβ (mature human interferon …); assay: SPR, Biacore T200; antibody amine-coupled on CM5 chip, human IFNβ as analyte, 1:1 model

T1 sequence (P01574 22-187): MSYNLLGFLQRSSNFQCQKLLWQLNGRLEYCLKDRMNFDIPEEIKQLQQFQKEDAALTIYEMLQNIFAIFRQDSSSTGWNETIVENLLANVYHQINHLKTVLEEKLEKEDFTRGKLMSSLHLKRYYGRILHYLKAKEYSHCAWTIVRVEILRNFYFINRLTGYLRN

Row | Binder | IC50 (pM) pSTAT1 Inhibition [1] | Response rank (Octet) [2] | other results
1 | CTI-AF15 (antibody, human IgG1, kappa, V domains shown) VH: QVQLVQSGAEVKKPGSSVKVSCKASGYTFSRYWMHWVRQAPGQGLEWMGHIDPSDSYTYYNQKFKGRVTITADESTSTAYMELSSLRSEDTAVYYCARWDYGNLLFEYWGQGTLVTVSS VL: DIQMTQSPSSLSASVGDRVTITCRTSQDISSYLNWYQQKPGKAFKLLIYSTSRLHSGVPSRFSGSGSGTDFTLTISSLQPEDFATYYCQQGIILPITFGGGTKVEIKR | 80 pM | 3 rank | 
2 | CTI-AF5 (antibody, human IgG1, kappa, V domains shown) VH: QVQLVQSGAEVKKPGSSVKVSCKASGYTFSRYWMHWVRQAPGQGLEWMGHIDPSDSYTYYNQKFKGRVTITADESTSTAYMELSSLRSEDTAVYYCARWDYGNLLFEYWGQGTLVTVSS VL: DIQMTQSPSSLSASVGDRVTITCRTSQDISNYLNWYQQKPGKAFKLLIYTTSRLRSGVPSRFSGSGSGTDFTLTISSLQPEDFATYYCQQGIVLPITFGGGTKVEIKR | 10 pM |  | 
3 | humanized parent of CTI-AF1 before affinity maturation (antibody, V domains shown, no mutations were made in VH) VH: QVQLVQSGAEVKKPGSSVKVSCKASGYTFSRYWMHWVRQAPGQGLEWMGHIDPSDSYTYYNQKFKGRVTITADESTSTAYMELSSLRSEDTAVYYCARWDYGNLLFEYWGQGTLVTVSS VL: DIQMTQSPSSLSASVGDRVTITCRTSQDISNYLNWYQQKPGKAFKLLIYSTSRLHSGVPSRFSGSGSGTDFTLTISSLQPEDFATYYCQQGHTLPLTFGGGTKVEIK |  |  | Kd [3]: 0.025 µM
4 | CTI-AF9 (antibody, human IgG1, kappa, V domains shown) VH: QVQLVQSGAEVKKPGSSVKVSCKASGYTFSRYWMHWVRQAPGQGLEWMGHIDPSDSYTYYNQKFKGRVTITADESTSTAYMELSSLRSEDTAVYYCARWDYGNLLFEYWGQGTLVTVSS VL: DIQMTQSPSSLSASVGDRVTITCRTSQDISNYLNWYQQKPGKAFKLLIFSTSRLHSGVPSRFSGSGSGTDFTLTISSLQPEDFATYYCQQSTILPLTFGGGTKVEIKR |  | 12 rank | IC50 (pM) ISRE Neutralization [1]: 75 pM
5 | CTI-AF8 (antibody, human IgG1, kappa, V domains shown) VH: QVQLVQSGAEVKKPGSSVKVSCKASGYTFSRYWMHWVRQAPGQGLEWMGHIDPSDSYTYYNQKFKGRVTITADESTSTAYMELSSLRSEDTAVYYCARWDYGNLLFEYWGQGTLVTVSS VL: DIQMTQSPSSLSASVGDRVTITCRTSQDIGNYLNWYQQKPGKAFKLLIYSTSRLHSGVPSRFSGSGSGTDFTLTISSLQPEDFATYYCQQSTILPLTFGGGTKVEIKR |  | 6 rank | IC50 (pM) ISRE Neutralization [1]: 460 pM
6 | CTI-AF4 (antibody, human IgG1, kappa, V domains shown) VH: QVQLVQSGAEVKKPGSSVKVSCKASGYTFSRYWMHWVRQAPGQGLEWMGHIDPSDSYTYYNQKFKGRVTITADESTSTAYMELSSLRSEDTAVYYCARWDYGNLLFEYWGQGTLVTVSS VL: DIQMTQSPSSLSASVGDRVTITCRTSQDISSYLNWYQQKPGKAFKLLIYSTSRLHSGVPSRFSGSGSGTDFTLTISSLQPEDFATYYCQQGIVLPITFGGGTKVEIKR |  | 4 rank | 

More lines, main results first:

Row | IC50 (pM) pSTAT1 Inhibition [1] | Response rank (Octet) [2] | Binder | other results
7 | 20 pM | 8 rank | CTI-AF20 (antibody, human IgG1, kappa, V domains shown) VH: QVQLVQSGAEVKKPGSSVKVSCKASGYTFSRYWMHWVRQAPGQGLEWMGHIDPSDSYTYYNQKFKGRVTITADESTSTAYMELSSLRSEDTAVYYCARWDYGNLLFEYWGQGTLVTVSS VL: DIQMTQSPSSLSASVGDRVTITCRTSQDISSYLNWYQQKPGKAFKLLIYTTSRLRSGVPSRFSGSGSGTDFTLTISSLQPEDFATYYCQQGIVLPITFGGGTKVEIKR | Kd [4]: 0.000335 µM
8 |  | 5 rank | CTI-AF10 (antibody, human IgG1, kappa, V domains shown) VH: QVQLVQSGAEVKKPGSSVKVSCKASGYTFSRYWMHWVRQAPGQGLEWMGHIDPSDSYTYYNQKFKGRVTITADESTSTAYMELSSLRSEDTAVYYCARWDYGNLLFEYWGQGTLVTVSS VL: DIQMTQSPSSLSASVGDRVTITCRTSQDISSYLNWYQQKPGKAFKLLIYSTSRLHSGVPSRFSGSGSGTDFTLTISSLQPEDFATYYCQQSTILPLTFGGGTKVEIKR | 
9 | 70 pM | 10 rank | CTI-AF27 (antibody, human IgG1, kappa, V domains shown) VH: QVQLVQSGAEVKKPGSSVKVSCKASGYTFSRYWMHWVRQAPGQGLEWMGHIDPSDSYTYYNQKFKGRVTITADESTSTAYMELSSLRSEDTAVYYCARWDYGNLLFEYWGQGTLVTVSS VL: DIQMTQSPSSLSASVGDRVTITCRTSQDIDNFLQWYQQKPGKAFKLLIFSTSKLHSGVPSRFSGSGSGTDFTLTISSLQPEDFATYYCQQGIILPITFGGGTKVEIKR | 
10 |  | 11 rank | CTI-AF21 (antibody, human IgG1, kappa, V domains shown) VH: QVQLVQSGAEVKKPGSSVKVSCKASGYTFSRYWMHWVRQAPGQGLEWMGHIDPSDSYTYYNQKFKGRVTITADESTSTAYMELSSLRSEDTAVYYCARWDYGNLLFEYWGQGTLVTVSS VL: DIQMTQSPSSLSASVGDRVTITCRTSQDIDNFLQWYQQKPGKAFKLLIFSTSKLHSGVPSRFSGSGSGTDFTLTISSLQPEDFATYYCQQGIVLPITFGGGTKVEIKR | 
11 |  | 9 rank | CTI-AF23 (antibody, human IgG1, kappa, V domains shown) VH: QVQLVQSGAEVKKPGSSVKVSCKASGYTFSRYWMHWVRQAPGQGLEWMGHIDPSDSYTYYNQKFKGRVTITADESTSTAYMELSSLRSEDTAVYYCARWDYGNLLFEYWGQGTLVTVSS VL: DIQMTQSPSSLSASVGDRVTITCRTSQDISSYLNWYQQKPGKAFKLLIYTTSRLRSGVPSRFSGSGSGTDFTLTISSLQPEDFATYYCQQSTILPLTFGGGTKVEIKR | 
12 | 30 pM | 7 rank | CTI-AF14 (antibody, human IgG1, kappa, V domains shown) VH: QVQLVQSGAEVKKPGSSVKVSCKASGYTFSRYWMHWVRQAPGQGLEWMGHIDPSDSYTYYNQKFKGRVTITADESTSTAYMELSSLRSEDTAVYYCARWDYGNLLFEYWGQGTLVTVSS VL: DIQMTQSPSSLSASVGDRVTITCRTSQDISNYLNWYQQKPGKAFKLLIFSTSRLHSGVPSRFSGSGSGTDFTLTISSLQPEDFATYYCQQGIILPITFGGGTKVEIKR | 
13 |  | 2 rank | CTI-AF16 (antibody, human IgG1, kappa, V domains shown) VH: QVQLVQSGAEVKKPGSSVKVSCKASGYTFSRYWMHWVRQAPGQGLEWMGHIDPSDSYTYYNQKFKGRVTITADESTSTAYMELSSLRSEDTAVYYCARWDYGNLLFEYWGQGTLVTVSS VL: DIQMTQSPSSLSASVGDRVTITCRTSQDISNYLNWYQQKPGKAFKLLIYTTSRLRSGVPSRFSGSGSGTDFTLTISSLQPEDFATYYCQQGIILPITFGGGTKVEIKR | IC50 (pM) ISRE Neutralization [1]: 14 pM
